± gives the uncertainty stated by the source.
Experiment: self-splicing fitness, log relative to wild type (ln ratio); higher = more splicing; Tetrahymena group I intron in knt gene, E. coli kanamycin selection, DiMSum; sequences stand for … in CUCUCU…GGAGGGAAAAGUUAUCAGGCAUGCACCUGGUAGCUAGUCUUUAAACCAAUAGAUUGCAUCGGUUUAAAAGGCAAGACCGUCAAAUUGCGGGAAAGGGGUCAACAGCCGUUCAGUACCAAGUCUCAGGGGAAACUUUGAGAUGGCCUUGCAAAGGGUAUGGUAAUAAGCUGACGGACAUGGUCCUAACCACGCAGCCAAGUCCUAAGUCAACAGAUCUUCUGUUGAUAUGGAUGCAGUUCACAGACUAAAUGUCGGUCGGGGAAGAUGUAUUCUUCUCAUAAGAUAUAGUCGGACCUCUCCUUAAUGGGAGCUAGCGGAUGAAGUGAUGCAACACUGGAGCCGCUGGGAACUAAUUUGUAUGCGAAAGUAUAUUGAUUAGUUUUGGAGUACUCGUGGUCG
How it was run: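 Six replicate transformations of E. coli BL21(DE3) with a pET-22b(+) library were grown overnight at 37°C or 30°C. The library randomised all eight P1ex-region intron nucleotides, the intron lying in the knt kanamycin-resistance gene, and plates were LB agar with or without 25 μg/mL kanamycin plus 100 μg/mL carbenicillin, 50 μM IPTG and 0.2% rhamnose. Pooled colonies were amplicon-sequenced on an Illumina HiSeq 2500, and fitness is the DiMSum error-weighted combination of wild-type-normalised replicate fold changes, kanamycin versus none.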

Sequence | self-splicing fitness (ln) (30 °C) | self-splicing fitness (ln) (37 °C)
UGCCAGCAAUAUUACGCCCC | -2.29 ± 0.26 | -1.44 ± 0.29
UGCCAGCAAUAUUACGCCUU | -1.93 ± 0.13 | -2.29 ± 0.18
UGCCAGCAAUAUUACGGAAC | -3.49 ± 0.34 | 
UGCCAGCAAUAUUACGGCCG | -0.659 ± 0.073 | -0.389 ± 0.092
UGCCAGCAAUAUUACGGUGU | -2.53 ± 0.11 | -2.7 ± 0.19
UGCCAGCAAUAUUACGGUUG | -1.94 ± 0.096 | -0.692 ± 0.11
UGCCAGCAAUAUUACGUCCG | -0.88 ± 0.073 | 0.0267 ± 0.11
UGCCAGCAAUAUUACGUGCG | -1.34 ± 0.077 | -1.13 ± 0.091
UGCCAGCAAUAUUACGUGGG | -3.88 ± 0.13 | -2.74 ± 0.14
UGCCAGCAAUAUUACGUUGU | -3.21 ± 0.12 | -2.86 ± 0.18
UGCCAGCAAUAUUACGUUUC | -4.47 ± 0.28 | -1.17 ± 0.16
UGCGAGCAAUAUUACGAGGG | -2.1 ± 0.13 | -2.3 ± 0.17
UGCGAGCAAUAUUACGCACC | -3.32 ± 0.31 | -2.72 ± 0.42
UGCGAGCAAUAUUACGCGAG | -3.16 ± 0.23 | -1.79 ± 0.25
UGCGAGCAAUAUUACGCGAU | -2.39 ± 0.42 | 
UGCGAGCAAUAUUACGCGCC | -2.45 ± 0.26 | -1.29 ± 0.27
UGCGAGCAAUAUUACGCGGU | -2.46 ± 0.17 | -2.43 ± 0.19
UGCGAGCAAUAUUACGCUGA | -2.35 ± 0.27 | -2.28 ± 0.27
UGCGAGCAAUAUUACGGCAA | -2.3 ± 0.4 | -0.0535 ± 0.27
UGCGAGCAAUAUUACGGGUA | -1.19 ± 0.18 | -0.698 ± 0.21

Sequence | self-splicing fitness (ln) (30 °C) | self-splicing fitness (ln) (37 °C)
UGCGAGCAAUAUUACGGUGA | -2.28 ± 0.18 | -1.49 ± 0.16
UGCGAGCAAUAUUACGGUGU | -4.19 ± 0.23 | -3.16 ± 0.4
UGCGAGCAAUAUUACGUCCA | -0.227 ± 0.25 | -0.499 ± 0.29
UGCGAGCAAUAUUACGUGAG | -4.57 ± 0.36 | -2.63 ± 0.18
UGCGAGCAAUAUUACGUUGG |  | -1.27 ± 0.26
UGCUAGCAAUAUUACGAAAG | -2.06 ± 0.21 | -0.114 ± 0.19
UGCUAGCAAUAUUACGAACA | -0.29 ± 0.12 | 0.199 ± 0.13
UGCUAGCAAUAUUACGACAA | -1.15 ± 0.13 | -0.207 ± 0.14
UGCUAGCAAUAUUACGACAU | -2.027 ± 0.016 | -1.05 ± 0.034
UGCUAGCAAUAUUACGACCA | 0.141 ± 0.17 | 0.148 ± 0.27
UGCUAGCAAUAUUACGACUC | -2.59 ± 0.27 | -0.141 ± 0.2
UGCUAGCAAUAUUACGAGGC | -2.55 ± 0.19 | -1.89 ± 0.34
UGCUAGCAAUAUUACGCAGC | -4.35 ± 0.36 | -2.1 ± 0.28
UGCUAGCAAUAUUACGCCGA | -2.48 ± 0.25 | -1 ± 0.19
UGCUAGCAAUAUUACGCCUU | -2.68 ± 0.23 | 0.255 ± 0.17
UGCUAGCAAUAUUACGCGUC | -3.06 ± 0.27 | -2.23 ± 0.27
UGCUAGCAAUAUUACGCUCU | -1.63 ± 0.13 | -0.156 ± 0.15
UGCUAGCAAUAUUACGCUGU | -3.58 ± 0.22 | -2.38 ± 0.27
UGCUAGCAAUAUUACGCUUU | -2.16 ± 0.14 | -2.22 ± 0.19

From the supplement of paper PMC7877785
